Source: PMC7367873, “Dissecting the sequence determinants for dephosphorylation by the catalytic subunits of phosphatases PP1 and PP2A” (Nature Communications, 2020)
Blank lines part the entries; values can stand above or below the molecule they belong to.

Tests used:
[1] = test system: GFP-14-3-3β and its binding proteins; assay: GFP-14-3-3β co-IP with LC-MS/MS label-free quantification, untreated versus PP1c-treated; set-up: species or system human; details: pairwise comparison PP1 vs untreated
[2] = test system: GFP-14-3-3β; assay: GFP-14-3-3β co-IP with LC-MS/MS, untreated GFP-14-3-3β versus GFP control (14-3-3 interactome); format: binding, human; details: pairwise comparison untreated vs GFP
[3] = log2 difference, label-free quantification, 3 replicates each

Difference (log2), PP1 vs untreated [1, 3]: 2.053
B1: HERC5 (protein, UniProt Q9UII4 1-1024, looked up)
E3 ISG15--protein ligase HERC5: MERRSRRKSRRNGRSTAGKAAATQPAKSPGAQLWLFPSAAGLHRALLRRVEVTRQLCCSPGRLAVLERGGAGVQVHQLLAGSGGARTPKCIKLGKNMKIHSVDQGAEHMLILSSDGKPFEYDNYSMKHLRFESILQEKKIIQITCGDYHSLALSKGGELFAWGQNLHGQLGVGRKFPSTTTPQIVEHLAGVPLAQISAGEAHSMALSMSGNIYSWGKNECGQLGLGHTESKDDPSLIEGLDNQKVEFVACGGSHSALLTQDGLLFTFGAGKHGQLGHNSTQNELRPCLVAELVGYRVTQIACGRWHTLAYVSDLGKVFSFGSGKDGQLGNGGTRDQLMPLPVKVSSSEELKLESHTSEKELIMIAGGNQSILLWIKKENSYVNLKRTIPTLNEGTVKRWIADVETKRWQSTKREIQEIFSSPACLTGSFLRKRRTTEMMPVYLDLNKARNIFKELTQKDWITNMITTCLKDNLLKRLPFHSPPQEALEIFFLLPECPMMHISNNWESLVVPFAKVVCKMSDQSSLVLEEYWATLQESTFSKLVQMFKTAVICQLDYWDESAEENGNVQALLEMLKKLHRVNQVKCQLPESIFQVDELLHRLNFFVEVCRRYLWKMTVDASENVQCCVIFSHFPFIFNNLSKIKLLHTDTLLKIESKKHKAYLRSAAIEEERESEFALRPTFDLTVRRNHLIEDVLNQLSQFENEDLRKELWVSFSGEIGYDLGGVKKEFFYCLFAEMIQPEYGMFMYPEGASCMWFPVKPKFEKKRYFFFGVLCGLSLFNCNVANLPFPLALFKKLLDQMPSLEDLKELSPDLGKNLQTLLDDEGDNFEEVFYIHFNVHWDRNDTNLIPNGSSITVNQTNKRDYVSKYINYIFNDSVKAVYEEFRRGFYKMCDEDIIKLFHPEELKDVIVGNTDYDWKTFEKNARYEPGYNSSHPTIVMFWKAFHKLTLEEKKKFLVFLTGTDRLQMKDLNNMKITFCCPESWNERDPIRALTCFSVLFLPKYSTMETVEEALQEAINNNRGFG
Difference (log2), untreated vs GFP [2, 3]: 0.5274

Difference (log2), PP1 vs untreated [1]: 0.2305 log2
B2: JUP (protein, UniProt P14923 1-745, looked up)
Junction plakoglobin: MEVMNLMEQPIKVTEWQQTYTYDSGIHSGANTCVPSVSSKGIMEEDEACGRQYTLKKTTTYTQGVPPSQGDLEYQMSTTARAKRVREAMCPGVSGEDSSLLLATQVEGQATNLQRLAEPSQLLKSAIVHLINYQDDAELATRALPELTKLLNDEDPVVVTKAAMIVNQLSKKEASRRALMGSPQLVAAVVRTMQNTSDLDTARCTTSILHNLSHHREGLLAIFKSGGIPALVRMLSSPVESVLFYAITTLHNLLLYQEGAKMAVRLADGLQKMVPLLNKNNPKFLAITTDCLQLLAYGNQESKLIILANGGPQALVQIMRNYSYEKLLWTTSRVLKVLSVCPSNKPAIVEAGGMQALGKHLTSNSPRLVQNCLWTLRNLSDVATKQEGLESVLKILVNQLSVDDVNVLTCATGTLSNLTCNNSKNKTLVTQNSGVEALIHAILRAGDKDDITEPAVCALRHLTSRHPEAEMAQNSVRLNYGIPAIVKLLNQPNQWPLVKATIGLIRNLALCPANHAPLQEAAVIPRLVQLLVKAHQDAQRHVAAGTQQPYTDGVRMEEIVEGCTGALHILARDPMNRMEIFRLNTIPLFVQLLYSSVENIQRVAAGVLCELAQDKEAADAIDAEGASAPLMELLHSRNEGTATYAAAVLFRISEDKNPDYRKRVSVELTNSLFKHDPAAWEAAQSMIPINEPYGDDMDATYRPMYSSDVPLDPLEMHMDMDGDYPIDTYSDGLRPPYPTADHMLA
Difference (log2), untreated vs GFP [2]: -0.9623 log2

Difference (log2), PP1 vs untreated [1]: 0.218 log2
B3: TMEM41B (protein, UniProt Q5BJD5 1-291, looked up)
Transmembrane protein 41B: MAKGRVAERSQLGAHHTTPVGDGAAGTRGLAAPGSRDHQKEKSWVEAGSARMSLLILVSIFLSAAFVMFLVYKNFPQLSEEERVNMKVPRDMDDAKALGKVLSKYKDTFYVQVLVAYFATYIFLQTFAIPGSIFLSILSGFLYPFPLALFLVCLCSGLGASFCYMLSYLVGRPVVYKYLTEKAVKWSQQVERHREHLINYIIFLRITPFLPNWFINITSPVINVPLKVFFIGTFLGVAPPSFVAIKAGTTLYQLTTAGEAVSWNSIFILMILAVLSILPAIFQKKLKQKFE
Difference (log2), untreated vs GFP [2]: 0.8349 log2
